± gives the half width of the 95% confidence interval.
Tests used:
[1] = folding stability dG unfold from trypsin proteolysis; higher = more stable
Summary of the method: (§1)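 Unfolding free energy was derived, per protease or combined, against a sequence-predicted unfolded-state K50 and a shared folded-state K50, starting from K50 inferred by Bayesian fitting of sequencing counts. Digestion with trypsin and chymotrypsin was carried out on designed mini-proteins under 80 residues without cysteine in a PA-tagged cDNA display construct. Only designs with AlphaFold2 dimer inter-PAE above 15 were kept.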

[2] = folding stability dG unfold from chymotrypsin proteolysis; higher = more stable
Summary of the method: as §1

[3] = folding stability dG unfold (combined trypsin and chymotrypsin); higher = more stable
Summary of the method: as §1

Row | Sequence | folding stability dG unfold [1] [kJ/mol] | folding stability dG unfold [2] [kJ/mol] | folding stability dG unfold [3] [kJ/mol]
1 | SAGGFLEAIKNGKPVIFHVLVKHPGSGEVEEYPILVHPDKPIDLEKLIKELFPEDFEAEIFVSDFGFSAGGS [r8_127_TrMRF] | 5.46 ± 0.544 | 8.82 ± 0.243 | 7.91 ± 0.372
2 | SAGGFLENLPDEVVEAALAAVLPDGSRVFVALRKGPDRPRVLIITFDANGVPRDIRELDPEEALKALEASAG [r5_73_TrMRF] | 10.4 ± 0.176 | 11.5 ± 0.117 | 11.2 ± 0.142
3 | SAGGFRIERDGDYLRIEIRVNDPPGQPVEEAKNIMKQLFGFKDIKVDEIEPNPNGQAEIEIEIPFPKSAGGS [r16_234_TrROS] | 2.76 ± 0.544 | -1.26 ± 1.21 | 1.64 ± 0.502
4 | SAGGFTIEELAEKFPNVEVYVQRFGNKYLIQFEFEDKDRKYQVVIKYDGPGKIDIKVMPPNQDAEEALSAGG [r13_859_TrROS] | 8.77 ± 0.289 | 12.95 ± 0.0795 | 11.7 ± 0.301
5 | SAGGFVTFKAPPVLIEAFKKAGLTPSEAKTLLLPVKFGDKEVVVEVTFYPETGEVKVKVLSFGTEFEAESAG [r5_545_TrMRF] | 9.31 ± 0.289 | 14.1 ± 0.167 | 12.8 ± 0.544
6 | SAGGGAPNKPVGKETFTVKIGDKWVKVEVTHYATSGTAEVKVTGPNGGPLGTFTVKIDPEKGGVYFGSAGGS [r16_798_TrMRF] | 3.05 ± 0.234 | 10.2 ± 0.31 | 8.82 ± 0.586
7 | SAGGGFDIITITFGGIPITLTLEGEEEVKKFIEELPKLGIKTEILEKEKKIGPDGKPYVEVKVKAIPSAGGS [r8_336_JUSTAS] | 1.25 ± 0.544 | 5.99 ± 0.586 | 4.99 ± 0.669
8 | SAGGGHMMPNITVDVEEEVFTLPDGSILTRTTVTVTLPNGKKTTVETEYFYDTKTGTVSSKVVKVEASAGGS [r16_166_JUSTAS] | 11.4 ± 0.46 | 14.4 ± 0.343 | 13.3 ± 0.418
9 | SAGGGISIVSGDPEITPEKAEAIAAELAAILEEKGFTPKDAELARLPGGRILVTITVDDGKPIVFSLSAGGS [r8_485_TrMRF] | 7.4 ± 0.172 | 4.8 ± 0.0795 | 6.23 ± 0.117
10 | SAGGGKKTKYVLLTFNPKEVKAEDLEKEILKKGAEIYIGDKPIDPGKGVKEVMKANPNTTFLVKIYDSAGGS [r8_38_TrMRF] | 4.66 ± 0.46 | 6.72 ± 1.76 | 4.68 ± 1.34
11 | SAGGGKLFVTEDAVLLELLYPETGEPYLAVFNPPTGLVTVYFPNRLKALFKIDPDGNLTLVKIEPANSAGGS [r16_127_TrMRF] | 8.63 ± 0.389 | 12.46 ± 0.117 | 11.3 ± 0.326
12 | SAGGGKTVEVTIEVPGENAVVYIKVYDKDKPISVFPAEFIPPTGTATFTIDVPEDAEITAEVALPEEASAGG [r13_977_TrMRF] | 0.443 ± 0.138 | 3.78 ± 0.586 | 2.87 ± 0.381
13 | SAGGGLALRLEVETERVEREVFDADGRLVAREEVEVRRVRLELVPLPPAPPPPTVTVRPGDPRDPRLRSAGG [r13_508_TrROS_Hall] | 6.38 ± 0.544 | 13.3 ± 0.167 | 11.2 ± 0.544
14 | SAGGGLGADALAKKFKELFPNAKVEKLPNGKVLFYIPETGKLIEIYDLDDEQIIKIIDPNTPKVYIISAGGS [r16_478_TrMRF] | 7.01 ± 0.322 | 4.13 ± 0.544 | 6.01 ± 0.46
15 | SAGGGMEIRLTIYRVDPETGVETSVEKEVTLEEAKEIVKEIPEEGEYTVRVTRPDRPEDVSPEELKLLSAGG [r13_254_JUSTAS] | 1.03 ± 0.46 | -0.0901 ± 0.669 | 0.805 ± 0.305
16 | SAGGGMESRTLTLPKEEIEKVKEEIKKASNLDIKVTTKKLPNGEYELTITFSNPEDVEKFEKKLGIESAGGS [r16_172_JUSTAS] | 8.31 ± 0.669 | 12.8 ± 0.247 | 11.3 ± 0.628
17 | SAGGGMLEVTREPSPDGVTRYVVTVPADRTVTVTRPDGTTTTTAAPDADAVITYTVPPGTPVAVSLTPSAGG [r13_82_JUSTAS] | 2.32 ± 0.126 | -2.19 ± 1.17 | 0.867 ± 0.385
18 | SAGGGMMVLKVSQPVLLLSTVTLPNGFPKFLPVSPLSLETTVTFTGSDQDAEELAAELKAQGATVTEESAGG [r13_452_JUSTAS] | 2.45 ± 0.105 | 3.01 ± 0.502 | 2.99 ± 0.326

Row | Sequence | folding stability dG unfold [1] [kJ/mol] | folding stability dG unfold [2] [kJ/mol] | folding stability dG unfold [3] [kJ/mol]
19 | SAGGGMMWTVTFYPKETDTPITFPVPKEYITEIDEENNKIVIKKPPGETIEITDFNKIKSIEITPLPSAGGS [r8_111_JUSTAS] | 2.26 ± 0.167 | 2.21 ± 0.753 | 2.45 ± 0.628
20 | SAGGGMQAVSPVKTETKTSPDGTTTTTTTTRYPDGTVVVPVTETSPTGGAKKVATTTVSLGPPSPALASAGG [r13_494_JUSTAS] | -1.32 ± 0.356 | 4.46 ± 0.138 | 2.51 ± 0.389
21 | SAGGGMSTTTETTIRIYVKDPQGNPVFVAELTVTVTTSPSGEVTIHLPPEFLKALPPNYTIAKIEVTSAGGS [r16_295_JUSTAS] | 16.5 ± 0.879 | 17.3 ± 0.36 | 17 ± 0.347
22 | SAGGGMSTYTITINIVIDPKEKKVPKPPLKDPFKLPPLKTIPITITAETSDPAVAAALEKAVKEALGLSAGG [r13_35_JUSTAS] | 7.24 ± 0.159 | 9.16 ± 0.226 | 8.39 ± 0.289
23 | SAGGGMTFNFTAPDGTPYEDVTTTPLPDGSTLVTVTQEDPKNPGVVTVTLIRLPSGADALEVTSGPVVSAGG [r13_370_JUSTAS] | 4.07 ± 0.293 | 3.36 ± 0.364 | 3.95 ± 0.397
24 | SAGGGMTPTITVTVHYPGETVTITLSSIEEALEYLKKQGLPINPTHSDPNTLVIEFPDGRTVTITLSSAGGS [r8_365_JUSTAS] | 15.3 ± 0.628 | 17.4 ± 0.669 | 16.7 ± 0.628
25 | SAGGGMVRPSIKITKHPDTYVATVTVTHPHRPVTVTLPFSSEPEAISEAEKIVEELIATPVPSPAGASAGGS [r16_24_JUSTAS] | 3.24 ± 0.155 | 3.48 ± 0.301 | 3.52 ± 0.46
26 | SAGGGNKPKIKVLLFFPDRVVELEFESPEEFIRALEEAGFPVIPVSEDSKYLVIEFPDGLRALADFSSAGGS [r8_365_TrMRF] | 10.2 ± 0.205 | 10.36 ± 0.0586 | 10.4 ± 0.192
27 | SAGGGNVTKTSTTTLPNGTTLVTYTGTSPSSAGSKNLSLLSLPFDVTVTKVEFDPNTGKVTIETVIPPSAGG [r13_413_JUSTAS] | 2.16 ± 0.247 | 5.23 ± 0.586 | 4.09 ± 0.544
28 | SAGGGPAAEVARLLREAGYDVEVEVEVFSREENPPLLPGEPLVVRVRVYATPPTGPRRPLGEFVVPVGSAGG [r13_874_TrMRF] | 6.16 ± 0.146 | 10.4 ± 0.121 | 9.1 ± 0.251
29 | SAGGGPAKEVPILALIKARNPETGEEYELPIVITANSKEDVEAAKGLVDTLAEALRELGFTEVEVEIGSAGG [r13_360_TrMRF] | 12.4 ± 0.289 | 11.4 ± 0.176 | 11.9 ± 0.243
30 | SAGGGPDEVSEVKVSSTTTDPATGKTYTVDTTTVTTPGTVTTNTTYTVHDPVTGAVTTETTTTTTPPGSAGG [r13_206_JUSTAS] | 2.44 ± 0.142 | 2.01 ± 0.314 | 2.47 ± 0.188
31 | SAGGGPDLVIDVEILEIRVEPEPGKTATIRVRALIYNPETDTWTLAEFEIRIPDDGSVEVRFRVEPLRSAGG [r13_917_TrMRF] | 12.9 ± 0.343 | 17.3 ± 0.209 | 15.7 ± 0.31
32 | SAGGGPLSPGSVPVEEEVTEVVEDPATGTVTTRSRVRYPDGVEVEVTTTTPAPGLPEVSTTEVTVRPASAGG [r13_894_JUSTAS] | 4.09 ± 0.184 | 3.97 ± 0.0753 | 3.89 ± 0.46
33 | SAGGGPPAKPVYLTVTVTTEDPVETAKKVEEEVKKLFPDAEILKVEVKKNPETNLYTVTVYVKKLVKSAGGS [r8_120_TrMRF] | 11.2 ± 0.314 | 19.2 ± 0.331 | 18 ± 0.385
34 | SAGGGPPSSMVKKTYTVTGTDPDALAAAVRAAIAAAHPDVEITEVTVSRDPSSDRYTVTVDVLSSVASAGGS [r8_120_JUSTAS] | 9.3 ± 0.151 | 11.04 ± 0.0711 | 10.5 ± 0.213
35 | SAGGGPSMTITVTVSSSELTSGSGPGPLTPEDVAKRLEAELPPGNVTVTVVEVDPATGEVTVRIEVESAGGS [r16_284_JUSTAS] | 4.89 ± 0.268 | 4.61 ± 0.142 | 4.88 ± 0.322
36 | SAGGGREIKVEFEIPHPNGNQMRITVTIYRSPGGIRIKIPVSYTDPEYRDYMREWAEYLARRIAKELSAGGS [r8_416_TrROS] | 12.8 ± 0.372 | 14.94 ± 0.092 | 14.5 ± 0.197

— the supplement of paper PMC12764529
